Measurements published in US20180079804A1 (Hoffmann-La Roche, published 2018).
Like-named read-outs stand apart in the source and are kept apart here. Non-standard residues stand in square brackets, D forms with d. No end group written: not given here. pS = N[C@@H](COP(=O)(O)O)C(=O)O

Tests used:
[1] = biological target: T1, full length human tau SEQ ID NO: 01 (human, UniProt P10636 1-758); test: ELISA
T1 construct: not phosphorylated; also called tau protein; non-phosphorylated full-length human tau
Protocol: (§1) Non-biotinylated peptide/protein/aggregate was added to non-coated Maxisorb plates, biotinylated peptide/protein/aggregate in PBS was added to streptavidin-coated Maxisorb plates, and plates were incubated over-night. The supernatant was discarded and the wells washed three times with 90 μl wash buffer (1x PBS/0.1% Tween 20). Remaining reactive spots were blocked with blocking buffer (1x PBS/2% BSA (Bovine Serum Albumin Fraction V, fatty acid free, Roche, Cat. No.: 10735078001)/0.05% Tween 20) by incubating for 1 hour. The supernatant was discarded and the wells washed three times with 90 μl wash buffer. Samples and control antibody were prepared in 12 dilutions (1:2) in ELISA buffer (1×PBS/0.5% BSA (Bovine Serum Albumin Fraction V, fatty acid free, Roche, Cat. […] The incubation time was 60 minutes at room temperature on a shaker. The supernatant was discarded and the wells washed three times with 90 μl wash buffer. Solutions of secondary antibody were prepared in ELISA buffer. A total of 25 μl antibody-mix was transferred to all wells of the assay plate and the plate was thereafter incubated on shaker for 60 minutes at room temperature. The supernatant was discarded and the wells were washed three times with 90 μl wash buffer. 25 μl of ABTS solution was added to all wells. The absorbance was read at 405 nm-492 nm.

[2] = biological target: T2, Tau(pS422) fragment SEQ ID NO: 03 (human); test: ELISA
T2 construct: also called phosphorylated tau peptide
T2 peptide: SIDMVD[pS]PQLATLAD
Protocol: as §1

[3] = biological target: T3, tau peptide residues 416 to 430 of SEQ ID NO: 01 (human, also: biotinylated, site not given here); test: ELISA
T3 construct: also called non-phosphorylated tau peptide
T3 peptide: SIDMVDSPQLATLAD
Protocol: as §1

[4] = biological target: T2, Tau(pS422) fragment SEQ ID NO: 03; test: ELISA
Protocol: Non-biotinylated peptide/protein/aggregate was added to non-coated Maxisorb plates, biotinylated peptide/protein/aggregate in PBS was added to streptavidin-coated Maxisorb plates, and plates were incubated over-night. The supernatant was discarded and the wells washed three times with 90 μl wash buffer (1x PBS/0.1% Tween 20). Remaining reactive spots were blocked with blocking buffer (1x PBS/2% BSA (Bovine Serum Albumin Fraction V, fatty acid free, Roche, Cat. No.: 10735078001)/0.05% Tween 20) by incubating for 1 hour. The supernatant was discarded and the wells washed three times with 90 μl wash buffer. Samples and control antibody were prepared in 12 dilutions (1:2) in ELISA buffer (1×PBS/0.5% BSA (Bovine Serum Albumin Fraction V, fatty acid free, Roche, Cat. No.: 10735078001)/0.05% Tween 20) with a start concentration of 500 ng/mL. The incubation time was 60 minutes at room temperature on a shaker. The supernatant was discarded and the wells washed three times with 90 μl wash buffer. Solutions of secondary antibody were prepared in ELISA buffer. A total of 25 μl antibody-mix was transferred to all wells of the assay plate and the plate was thereafter incubated on shaker for 60 minutes at room temperature. The supernatant was discarded and the wells were washed three times with 90 μl wash buffer. 25 μl of ABTS solution was added to all wells. The absorbance was read at 405 nm-492 nm.

[5] = biological target: T1, full length human tau SEQ ID NO: 01; test: ELISA, non-phosphorylated full-length human tau coated at 1 ug/ml, antibody titrated
[6] = biological target: T2, Tau(pS422) fragment SEQ ID NO: 03; test: ELISA, ratio of EC50 values
Protocol: Rabbit monoclonal antibodies were recombinantly expressed in HEK293 cells. […] For preparation of ELISA plates, streptavidin pre-coated microtiter plates were incubated with biotinylated tau (415-430)[pS422] at 50 ng/ml for 1 hour at room temperature. Coating with KLH or control peptides was performed at 1 μg/ml. Rabbit anti-Tau(pS422) antibody (Abcam AB51071) or rabbit antibody containing supernatants were incubated in the antigen labeled microtiter plates for 60 minutes at various concentrations. After intensive washing, the binding of the rabbit antibodies was detected using a sheep anti-rabbit IgG […] conjugated detection antibody (Chemicon AQ301D). After incubation with TMB at room temperature absorbance at 370 nm-492 nm was measured. The antibody binding was characterized by its EC₅₀ values. […] Cross-reactivity with KLH or MCAK phosphopeptide was estimated by single-point measurement at high concentrations, i.e., at 1:5 dilution of the cell culture supernatants. […] Binding to KLH and MCAK control phosphopeptide was at background level with all antibodies, which is about 1 to 3% of the maximal value measures with tau phosphopeptide.

T1 sequence (P10636 other isoform, or with tags, fused parts or gaps limits assumed): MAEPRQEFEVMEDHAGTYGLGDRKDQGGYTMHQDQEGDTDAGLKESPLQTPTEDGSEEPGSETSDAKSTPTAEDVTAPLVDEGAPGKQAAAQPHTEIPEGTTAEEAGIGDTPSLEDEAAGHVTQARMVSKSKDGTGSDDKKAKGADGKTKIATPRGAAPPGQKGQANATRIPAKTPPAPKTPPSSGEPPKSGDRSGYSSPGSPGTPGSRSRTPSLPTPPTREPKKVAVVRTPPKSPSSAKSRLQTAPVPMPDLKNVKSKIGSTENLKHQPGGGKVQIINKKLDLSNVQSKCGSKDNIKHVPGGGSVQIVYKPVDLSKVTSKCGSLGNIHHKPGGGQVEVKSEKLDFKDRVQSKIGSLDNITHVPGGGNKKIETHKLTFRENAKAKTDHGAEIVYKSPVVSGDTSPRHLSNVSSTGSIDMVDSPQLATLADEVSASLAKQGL

B1: VH32/VL22 (antibody, V domains shown)
VH: EVQVLESGGGLVQPGGSLRLSCAVSGFSLSSNAINWVRQAPGKGLEWVGYIAVSGNTYYASWAKGRFTISRDNSKNTVYLQMNSLRAEDTAVYYCGKSNIWGQGTLVTVSS
VL: AQVMTQSPSSLSASVGDRVTITCRSSQSVRTNRLAWFQQKPGQPPKRLIYSASTLDYGVPSRFSGSGSGTEFTLTISSLQPEDFATYYCLGYFDSSADIVAFGGGTKVEIK
notes: full size IgG
What does the source list for B1?
OD@1 µg/mL [1]: 0.14 OD; EC50 [2]: 0.0404 mg/L; OD@1 µg/mL [3]: 2.26 OD; EC50 [4]: 0.0056 mg/L; binding result [5]: no binding (tested: 1000 ng/ml)

B2: mAb 086 (antibody, V domains shown)
VH: QSVEESGGRLVTPGTPLTLTCTVSGFSLSSNAINWVRQAPGKGLEWIGYIAVSGNTYYASWAKGRFTISKASTTVDLKMTSPTAEDTGTYFCGKSNIWGPGTLVTVSL
VL: AQVLTQTTSPVSAAVGSTVTISCQSSQSVRTNKLAWFQQKPGQPPKRLIYSASTLDFGVPSRFSASGSGTQFTLTISDVQCDDAATYYCLGYFDCSIADCVAFGGGTEVVVK
notes: also called rabbit antibody 086
B2 was tested. Which “selectivity for phosphorylated tau fragment compared to non-phosphorylated tau peptide” value [6] did it give?
The value was no less than 100 fold.
